We go through one variant from IntAct's records for PubMed 20126385.

B1: Adenomatous polyposis coli protein-related protein 1 (Caenorhabditis elegans), Q21227-1 (parent)
chain: MSSSSSDENETTIHRTGSNTGGSGIYSQPRAGSSKRTSNVRHDVSDVDDEEEHYARFREDTAIEVDDAITVLLSSLHFEHKRDIVPTDEDDNKLRELHEKIFALITSESDVNRKRRLKKALPASNCVREQVYYLRRKPSTPPASYYHRLNAALHTIVKESFGEEYRKVATVLGLVEALAEVLILEVHTFGINETNPGEHRNIRKLIANALTNLTYGQIHSKRRLCSYDGFIRCVVRIVIESPNITQVYAGLIRNLSWNADSGMSEALQPTVHALSIAAVHAHTHRFDVTATLSALWNLAGHSVENKRTICDTPNCLKVLASLLSPDARFTSLVDSATGILKYVSQYLANTSTHLELRSLLITRMLTLLKSASFTCVTNTLGAIANLIVKDPHMQQMIRQDMAAVQQLNVLRNSNRDDIRTAVKSVLNTLNQPCSHRYGDMSHSVGGGATGMQMLSEPQLQMQTSHHAYHGTASPRLLSLRATRASPGKYIQPQAQQQLIQTPQVDQRSSSLPRHFAVQRNGFVMAQSYNQQMDQHQQQQMIYQLQQQQQIMFQTEDQAQMEHHQQIMYLQQQQQQFHQIQQQQQMQKAQEADPVPPTDDDLDIPTSTVMGTRSNSERSLGSMNPGSVMTNWNSSLDTAANSSRALSPVSYNDIPASPTMCAQVFNLPKSTESEHHQLTSQQQNTTHYSSGSANTMTRSDGATTVPMDNIITPTYAILNPILVHEQTPNGTVPRKTSEELDSPDDVLPGPSLEEEEGDYAIIGGAAQKTDDELLTRSIQSEMPTSSSTPKMKVSPRLNGFFSPTQKTTSSPAWSHPDTSPIPKSSSHRTQPNRRQDASDADRLLMESIMSEMPKSRIISPRLAGTQQYLEPEPERRSHSKNEEADRRDAFTASHEPSDHNGIDVARGSDWSPQQQLHRMESLESQASSEDSFGLTAEEPNSSTSGAAANTMRFDDEIDASLPMDCVDDDDYDYTYDHFEDYEDEEDPDATQFDDGVDAQLTIDCSMISSGSGSSQRNETTTTSRDSKALATSTPKGSASSLPGVRQATRVSTNGKSRLPVPKTNGSLVDKNPKPIIASRRPRLPPKPTLLKDKHYPEEDSIENQTRDDTIYVNAPVVEAEQERIYMNALKQQKNIEQSPSIGNGSPIAKSAIVTPYNYQKPPFTGRNNGEMSNEKSVTPNPKQMLVTIV
partner: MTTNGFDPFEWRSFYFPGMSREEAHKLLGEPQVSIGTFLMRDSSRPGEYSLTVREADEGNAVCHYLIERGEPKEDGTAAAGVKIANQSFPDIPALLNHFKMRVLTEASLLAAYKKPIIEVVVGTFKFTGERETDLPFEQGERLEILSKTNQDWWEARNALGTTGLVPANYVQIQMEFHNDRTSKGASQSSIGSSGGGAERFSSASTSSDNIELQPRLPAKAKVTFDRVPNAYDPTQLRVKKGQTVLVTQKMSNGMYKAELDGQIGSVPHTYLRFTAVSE

Variants of B1 are the subject of this assay. As to conditions: with ced2_caeel ced-2, Q9NHC3.
Turning to Y489A, the “effect of a mutation on the interaction” value is on record as “decreasing interaction”.
